Experimental data taken from US20210009693A1 (MABSPACE BIOSCIENCES SUZHOU, published 2021).

T1: hPD-L2-Fc (human, UniProt Q9BQ51 20-219)
T1 construct: Acrobiosystems PD2-H5251; also called human PD-L2 protein; not shown: Fc tag
T1 sequence (looked up): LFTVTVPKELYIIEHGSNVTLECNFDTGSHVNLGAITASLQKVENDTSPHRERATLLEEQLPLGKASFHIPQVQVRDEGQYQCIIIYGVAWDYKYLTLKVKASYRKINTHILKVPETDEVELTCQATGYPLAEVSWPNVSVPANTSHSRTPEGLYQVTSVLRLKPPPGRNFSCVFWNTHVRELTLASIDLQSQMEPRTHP


How the values were obtained:
hPD-L2-Fc = target: T1, hPD-L2-Fc; assay: ELISA, plate coated with hPD-L2-Fc
Protocol: Briefly, high-binding clear polystyrene 96 well plates (Nunc) were coated with 100 μl/well of a 0.5 μg/ml human PD-L1-Fc (Acrobiosystems, Cat #PD1-H5258) or 100 μl/well of a 1 μg/ml hPD-L2-Fc (Acrobiosystems, Cat #PD2-H5251), respectively, in high pH coating buffer (0.16% Na2CO3+0.3% NaHCO₃, pH 9.8) and incubated overnight at 4° C. Then the plates were washed once on an automatic plate washer using washing buffer (PBS+0.1% Tween 20 (Amresco)). 200 μl of blocking buffer (PBS+1% BSA+1% normal goat serum+0.05% Tween-20) was added to each well and incubated for 2 hours at room temp. Then add 100 μl 2 μg/ml purified PD-L1 antibodies with dilution buffer (PBS+1% BSA+1% normal goat serum+0.01% Tween-20) and incubate for 1 hour at RT. The plates were then washed 3 times with washing buffer. 100 μl/well of a solution of HRP conjugated goat anti-mouse IgG antibody (1:20000, Abcam) in dilution buffer was then added to each well of the plate. After that the ELISA plates were allowed to incubate for 60 min at RT then the plates were washed 3 times with 250 μl/well washing buffer. Finally, 100 μl/well of TMB was added to each well for 15 min and the reaction was terminated using 50 ul/well of 0.16 M/L sulfuric acid. The plates were read on a Thermo Multiscan FC at 450 nM (see FIG. 6G).

[1] = target: T2, wild type human PD-L1-Fc protein (SEQ ID NO: 107) (human); assay: ELISA on captured PD-L1-Fc, as in Example 18A
T2 construct: Extracellular human PD-L1 (amino acid 19-238) with Fc fragment of human IgG1, expressed in 293T cells and used as culture supernatant; also called WT PD-L1; wild-type PD-L1
T2 sequence (chain, as listed by the source limits assumed): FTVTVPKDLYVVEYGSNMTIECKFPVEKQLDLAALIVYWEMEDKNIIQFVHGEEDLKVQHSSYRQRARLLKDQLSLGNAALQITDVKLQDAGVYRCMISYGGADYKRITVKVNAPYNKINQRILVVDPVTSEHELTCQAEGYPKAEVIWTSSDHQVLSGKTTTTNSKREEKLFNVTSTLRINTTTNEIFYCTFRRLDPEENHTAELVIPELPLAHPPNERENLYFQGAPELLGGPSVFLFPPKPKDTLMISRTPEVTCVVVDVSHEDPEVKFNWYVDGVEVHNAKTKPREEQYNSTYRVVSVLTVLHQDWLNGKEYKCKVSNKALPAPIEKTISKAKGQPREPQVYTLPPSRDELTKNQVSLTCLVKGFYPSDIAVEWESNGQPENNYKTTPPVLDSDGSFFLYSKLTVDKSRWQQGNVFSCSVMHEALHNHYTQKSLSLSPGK

[2] = target: T3, human PD-L1-Fc mutant E58A (human); assay: ELISA on captured PD-L1-Fc, as in Example 18A
T3 construct: Position 58 counts on native human PD-L1 (NP_054862.1); also called E58A mutant
T3 sequence (chain, as listed by the source E58A E58A limits assumed): as the sequence (chain, as listed by the source limits assumed) above, with E40A counted along it

[3] = target: T4, human PD-L1 expressed on cells (human, UniProt Q9NZQ7 19-290); assay: FACS, IFN-gamma stimulated HCC827 cells
T4 construct: whole, on cells; also called hPD-L1 expressed on HCC827; hPD-L1 on MC38/hPD-L1 cells
T4 sequence (Q9NZQ7 19-290): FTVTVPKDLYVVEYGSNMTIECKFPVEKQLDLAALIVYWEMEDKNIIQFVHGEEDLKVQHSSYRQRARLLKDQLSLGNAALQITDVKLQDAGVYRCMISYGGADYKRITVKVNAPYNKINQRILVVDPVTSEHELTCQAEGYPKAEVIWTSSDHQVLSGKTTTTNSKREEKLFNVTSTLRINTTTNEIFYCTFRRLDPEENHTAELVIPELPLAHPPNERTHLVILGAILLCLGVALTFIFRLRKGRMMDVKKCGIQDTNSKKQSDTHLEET
Protocol: Log phase IFN-γ stimulated (500U/ml for 2 days) HCC827 cells were collected and resuspended in blocking buffer (5% BSA+PBS). 2×10\hat{ }5 cells were added to each tube and then washed once with PBS (1500 rpm, 5 mins, RT). The 100 μl/tube serial diluted PD-L1 antibodies purified from hybridoma supernatant in blocking buffer were added into corresponding tubes and were incubated at 4° C. for 1 hr. The cells were then washed twice with 1 ml PBS, followed by adding 100 μl/tube of 2nd antibody (1:400 anti-mIgG (H+L)-PE, Cell signaling) in blocking buffer. The cells were incubated at 4° C. for 1 hr and then washed twice with PBS, followed by resuspending cells in 150 μl PBS for each sample. The cells were then transferred into FACS tube and the bindings of the antibodies to the cells were detected using flow cytometry (BD Accuri C6) (see FIG. 5A).

[4] = target: T5, Recombinant Human PD-L1/CD274 Protein (hPD-L1-his) (human, UniProt Q9NZQ7 19-238); assay: ELISA, purified mouse antibody on coated hPD-L1-his
T5 construct: range 19-238; ACRO Biosystem PD1-H5229, made in HEK293; also called human PD-L1-his; hPD-L-his
T5 sequence (Q9NZQ7 other isoform, or with tags, fused parts or gaps limits assumed): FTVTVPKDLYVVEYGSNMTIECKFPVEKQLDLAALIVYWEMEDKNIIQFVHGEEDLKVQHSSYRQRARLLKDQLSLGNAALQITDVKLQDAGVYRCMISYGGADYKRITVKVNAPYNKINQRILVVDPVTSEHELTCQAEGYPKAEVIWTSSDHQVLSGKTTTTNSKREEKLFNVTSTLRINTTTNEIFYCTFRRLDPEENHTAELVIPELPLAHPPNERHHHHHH
Protocol: High-binding clear polystyrene 96 well plates (Nunc) were coated with 100 μl/well of a 0.5 μg/ml hPD-L1-his in high pH coating buffer and incubated overnight 4° C. Then plates were washed once on an automatic plate washer using washing buffer (PBS+0.1% Tween 20 (Sigma)). 200 μl of blocking buffer (PBS+1% BSA+1% normal goat serum+0.05% Tween-20) was added to each well and incubated 2 hours at room temp. Then add serially diluted purified antibodies with dilution buffer (PBS+1% BSA+1% normal goat serum+0.01% Tween-20) and incubate for 1 hour at RT. The plates were then washed 3 times using the method described above. 100 μl/well of a solution of HRP conjugated goat anti-mouse Fc antibody (Abcam) in dilution buffer was then added to each well of the plate. After that the ELISA plates were allowed to incubate for 60 min at RT then plates were washed 3 times with 250 μl/well washing buffer. Finally, 100 μl/well of TMB was added to each well and was terminated using 0.64M H₂SO₄. The plates were read on a Thermo Multiscan FC at 450 nM (see FIG. 3).

[5] = target: T6, Recombinant Mouse PD-L1/CD274 Protein (mPD-L1-his) (mouse, UniProt Q9EP73 19-238); assay: ELISA, 20 ug/ml antibody on coated mouse PD-L1 (his-tagged per text, mPD-L1-Fc per sheet title)
T6 construct: range 19-238; ACRO Biosystem PD1-M5220; also called mouse PD-L1-his
T6 sequence (Q9EP73 other isoform, or with tags, fused parts or gaps limits assumed): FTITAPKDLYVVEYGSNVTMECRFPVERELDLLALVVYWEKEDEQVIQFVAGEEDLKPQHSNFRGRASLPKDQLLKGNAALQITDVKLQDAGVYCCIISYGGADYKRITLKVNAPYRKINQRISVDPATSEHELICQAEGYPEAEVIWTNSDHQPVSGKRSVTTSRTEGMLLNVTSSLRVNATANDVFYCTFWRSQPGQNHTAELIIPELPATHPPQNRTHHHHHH
Protocol: High-binding clear polystyrene 96 well plates (Nunc) were coated with 100 μl/well of 1 μg/ml mouse PD-L1-his in high pH coating buffer and incubated overnight at 4° C. Then plates were washed once on an automatic plate washer using washing buffer (PBS+0.1% Tween 20 (Sigma)). 200 μl of blocking buffer (PBS+1% BSA+1% normal goat serum+0.05% Tween-20) was added to each well and incubated for 2 hours at room temp. Then add 20 μg/ml purified hybridoma mouse antibodies in dilution buffer (PBS+1% BSA+1% normal goat serum+0.01% Tween-20) and incubate for 1 hour at RT. The plates were then washed 3 times with 250 μl/well washing buffer. 100 μl/well of a solution of HRP conjugated goat anti-mouse Fc antibody (Abcam) in dilution buffer was then added to each well of the plate. After that the ELISA plates were allowed to incubate for 60 min at RT then plates were washed 3 times with 250 μl/well washing buffer. Finally, 100 μl/well of TMB was added to each well and the reaction was terminated using 0.64M H₂SO₄. The plates were read on a Thermo Multiscan FC at 450 nM (see FIG. 6F).

[6] = target: T5, Recombinant Human PD-L1/CD274 Protein …; assay: ELISA, coated hPD-L1-his, acidic wash and incubation after binding at pH7.4
Protocol: (§1) The pH-dependent binding affinity was further measured at various pH values, such as pH4, pH4.5, pH5.0, pH5.5, pH6.0, pH7.4. The measurement by ELISA was conducted similarly to the method described above. High-binding clear polystyrene 96 well plates were coated with 100 μl/well of a 0.5 μg/ml hPD-L1-his in high pH coating buffer and incubated overnight at 4° C. Then the coated plates were washed 3 times with shaking for 10s on an automatic plate washer with PBS+0.1% Tween 20 (Amresco). Then 200 μl of blocking buffer (1% BSA (Solarbio)+1% normal goat serum (Solarbio)+0.05% Tween 20 (Amresco)) was added to each well and the plates were then incubated for 2 hours at room temperature and washed 3 times as above. […] The plates were then washed once with 250 μl/well washing buffer at pH7.4, pH6.0, pH5.5, pH5.0, pH4.5 or pH4.0 and then 100 μl/well pH7.4 or pH5.5 washing buffer was added and the incubation was continued for 2 hours at RT with shaking. Afterwards, the plates was washed 3 times washing buffer at pH7.4 and 100 μl/well of a solution of HRP conjugated goat anti-hIgG HRP antibody (1:20000, Abcam) in pH7.4 dilution buffer was then added to each well of the plate. After that the plates were allowed to incubate for 60 min at room temperature followed by washing 3 times with 250 μl/well pH7.4 washing buffer. Finally, 100 μl/well of TMB was added to each well for 15 min and the reaction was terminated using 50 μl/well of 0.16M/L sulfuric acid. The plates were read on a Thermo Multiscan FC at 450 nm (see FIG. 23A-23F). The measurements were performed in triplicate.

[7] = target: T5, Recombinant Human PD-L1/CD274 Protein …; assay: ELISA on coated hPD-L1-his; bound at pH7.4, then 2 h at pH7.4
Protocol: as §1

Row | binding result (hPD-L2-Fc) | Mean OD450 [1] [OD450] | OD450 nM of sample-1 [1] [OD450] | OD450 nM of sample-2 [1] [OD450] | % of binding of Ab to E58A mutant vs. that to WT PD-L1 [2] [%] | Mean OD450 [2] [OD450] | OD450 nM of sample-1 [2] [OD450] | OD450 nM of sample-2 [2] [OD450] | EC50 (read off the curve) [3] [µg/mL] | EC50 (read off the curve) [4] [µg/mL] | binding result [5] | binding signal at pH5 as percent of the signal at pH7.4 [6] [%] | binding signal at pH5.5 as percent of the signal at pH7.4 [6] [%] | EC50 (read off the curve) [7] [µg/mL] | Binder
1 | no binding (tested: 2 ug/ml) | 1.49 | 1.43 | 1.54 | 69.6 | 1.04 | 1.06 | 1.01 | ~0.04 | ~0.01 | no binding (tested: 20 ug/ml) |  |  |  | 4B6 (antibody, V domains shown, Mouse monoclonal purified from hybridoma; also called mouse monoclonal antibody 4B6) VH: EVQLQQSGPELVKPGASVKISCKASGYVFTDYYMNWVKQSHGKSLEWIGDINPNNGGTSYNHKFKGKATVTVDKSSRTAYMELLSLTSEDSAVYYCVKWGDGPFAYWGQGTLVTVSA VL: DIVMTQSQKFMSTSVGDRVSITCKASQNVGAAVAWYQQKPGQSPKLLIYSASNRYTGVPDRFTGSGSGTDFTLTISNMQSEDLADYFCQQYSNYPTFGSGTKLGIK
2 | no binding (tested: 2 ug/ml) | 1.71 | 1.65 | 1.76 | 9.9 | 0.338 | 0.383 | 0.292 | ~0.07 | ~0.006 | no binding (tested: 20 ug/ml) |  |  |  | 23F11 (antibody, V domains shown, also called mouse monoclonal antibody 23F11; clone 23F11) VH: QVQLQQPGAELVKPGASVKLSCKASGYSFTTYWMHWVKQRPGQGLEWIGMIQPNSGGTKYNEKFKKKATLTVDKSSTTASMELSSLTSEDSAVYYCARGAGTVDYFDYWGQGSTLTVSS VL: DIVLTHSPVSLAVSLGQRATISCRASESVDIYGNSFMHWYQQKPGQPPKLLIYRASNLESGIPARFSGSGSRTDFTLTINPVEADDVATYYCQQSTEDPYTFGGGTKLEIK
3 |  |  |  |  |  |  |  |  |  |  |  | < 50 | < 75 | ~0.06 | 22C9-C (antibody, V domains shown, Mouse variable regions fused to a human IgG1 constant region; also called 22C9-chimeric; chimeric antibody 22C9) VH: QVQLQQSGAELVKPGASVKLSCKASGYTFTSYWMHWVWQRPGQGLEWIGMIHPNSDITNCNENFKHTVTLTVDKSSSTAYMQLSSLTSEDSAVFYCARSDGSSYWYFDVWGTGTTVTVSS VL: SIVMTQTPKFLSVSAGDRVTITCKAGQSVNNDVAWYQQKPGQSPKLLIYYASNRYTGVPDRFTGSGYGTDFTFTISTVQAEDLAVYFCQQDFSSPLTFGAGTKLELK
